Article PMC11686323 (Communications Biology, 2024)

Biological target: the molecule itself
Experiment: cryo-EM structure

B1: phosphoglucomutase GlmM of Lactococcus lactis (enzyme, UniProt A2RIG0 1-452, looked up)
chain: MGKYFGTDGVRGEANVELTPEMAFKLGRFGGYVLSQHELETPKVYVGRDTRISGQMLASSLISGLLSVGIEVYDLGVIATPGVAYLVKKDGASAGVMISASHNPALDNGIKFFGGDGYKLEDEKELEIEALIDAKEDTLPRPSAQGLGMLHDYIEGVRKYQAFLKTTAEGDFEGYNVVLDTANGASYTSARAVFADLKANLTVIGENPDGLNINVKVGSTHPEAMAKKVVETGSDLGLAFDGDADRLIAVDENGEIVDGDKIMFIVGKYLLEQGKLAQDTLVTTVMSNLGFHLALEEAGINSVITAVGDRYVVEEMKKNNYNFGGEQSGHMIFLDYNTTGDGQLSAIQLLKVMRETGKTLSELASEVTIYPQKLVNVRVKDNAAKKSAMDVPAIQKVISEMETSMNGKGRILVRPSGTEPLLRVMAEAPTHEQVDHVVDTIVEVVEEEIGVK
Question: For B1, which “stoichiometry N” value is on record?
Answer: 2
